1 molecule from patent JP2017086068A (dated 2017) can be followed below.

For the assay, the target named is HA2融合ペプチドFGAIAG (Influenza A virus (A/VN/1194/04)). Briefly: Pepscan peptide mapping, linear and cyclised peptides of HA A/VN/1194/04.

B1: FI6変異体2 (antibody, V domains shown)
VH: QVQLVQSGGGVVQPGRSLRLSCVASGFTFSTYAMHWVRQAPGRGLEWVAVISYDGNYKYYADSVKGRFSISRDNSNNTLHLEMNTLRTEDTALYYCAKDSQLRSLLYFEWLSQGYFDPWGQGTLVTVTS
VL: DIQMTQSPDSLAVSLGARATINCKSSQSVTFNYKNYLAWYQQKPGQPPKVLIYWASARESGVPDRFSGSGSGTDFTLTISSLQAEDVAVYYCQQHYRTPPTFGQGTKVEIK
As to B1, the binding result is “binds”.
